Molecular target: T1, human CD19 (human, UniProt P15391 20-556)
T1 construct: whole, on cells; also called CD19 B-cell antigen
T1 sequence (looked up): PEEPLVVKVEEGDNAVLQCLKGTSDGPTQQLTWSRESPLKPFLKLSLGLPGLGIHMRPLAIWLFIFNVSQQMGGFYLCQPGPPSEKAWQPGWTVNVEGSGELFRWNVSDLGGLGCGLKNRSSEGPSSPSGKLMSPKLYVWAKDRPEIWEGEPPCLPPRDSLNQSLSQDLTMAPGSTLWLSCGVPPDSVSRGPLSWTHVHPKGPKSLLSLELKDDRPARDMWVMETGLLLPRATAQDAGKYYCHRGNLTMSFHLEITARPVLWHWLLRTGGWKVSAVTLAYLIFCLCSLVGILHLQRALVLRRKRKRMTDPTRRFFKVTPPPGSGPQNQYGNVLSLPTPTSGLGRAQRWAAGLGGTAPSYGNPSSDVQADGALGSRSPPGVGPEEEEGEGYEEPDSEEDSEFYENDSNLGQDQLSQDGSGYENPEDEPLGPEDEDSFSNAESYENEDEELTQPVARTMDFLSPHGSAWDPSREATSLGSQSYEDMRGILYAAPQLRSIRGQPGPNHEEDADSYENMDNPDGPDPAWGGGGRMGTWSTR
Assay: flow cytometry on CD19-positive cells with varying antibody concentrations and a fluorescently labeled secondary antibody (Benedict method); mean of 6 experiments

B1: humanized (chimeric) anti-CD19 IgG1 antibody of the disclosure, 4G7chim (antibody, V domains shown)
VH: QVQLQQSGPELIKPGASVKMSCKASGYTFTSYVMHWVKQKPGQGLEWIGYINPYNDGTKYNEKFKGKATLTSDKSSSTAYMELSSLTSEDSAVYYCARGTYYYGSRVFDYWGQGTTLTVTV
VL: DIVMTQAAPSIPVTPGESVSISCRSSKSLLNSNGNTYLYWFLQRPGQSPQLLIYRMSNLASGVPDRFSGSGSGTAFTLRISRVEAEDVGVYYCMQHLEYPLTFGAGTKLEIRR
notes: also called anti-CD19 antibody of the present disclosure; CD19 chimeric antibody
Kd: ~5.5 nM
